Drawing on PMC8564334, this text covers binding signal (% protection from PmlI) and binding signal (% protection from BsiWI) for one substance.

In this series the test system is Histone H3;Histone H4 (His6-TEV) (Drosophila melanogaster;Drosophila melanogaster). The series is described as follows: restriction enzyme protection. Particulars: purified tetrasome, Wheat germ cell-free co-expression with NAP1 at 26 C for 6 h, TALON purification in 10 mM Tris/HCl pH 7.4, 40 mM NaCl (elution 250 mM imidazole), 6% native ….

Substance 601_185bp had a binding signal (% protection from PmlI) (37 C) of 81. In addition, the binding signal (% protection from BsiWI) (55 C) turned out to be 93.6.
